PMC10612264, “A novel transcriptional repressor specifically regulates xylanase gene 1 in Trichoderma reesei”
Substitutions are numbered along the chain they refer to.

Columns and labels:
[1] = molecular target: T1, XTR1 DBD (Trichoderma reesei QM9414) (UniProt G0RH11); experiment: EMSA; details: EMSA: 10 mM Tris pH 7.5, 50 mM KCl, 1 mM DTT, 150 ng DNA, 20 C 30 min, 6% native PAGE at 4 C in 0.5x TBE, EtBr; footprinting: 180 ng DNA, 25 C 30 min
T1 sequence: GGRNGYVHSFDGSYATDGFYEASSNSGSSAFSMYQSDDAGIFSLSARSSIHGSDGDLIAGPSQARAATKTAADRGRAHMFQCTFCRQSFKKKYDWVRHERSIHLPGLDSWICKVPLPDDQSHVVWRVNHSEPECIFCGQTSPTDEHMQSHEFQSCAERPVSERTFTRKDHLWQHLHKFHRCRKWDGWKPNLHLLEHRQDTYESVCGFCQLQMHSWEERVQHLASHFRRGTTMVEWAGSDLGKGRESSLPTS

[2] = molecular target: T2, XYR1 DBD (Trichoderma reesei) (UniProt G0RLE8); experiment: EMSA; details: EMSA: 10 mM Tris pH 7.5, 50 mM KCl, 1 mM DTT, 150 ng DNA, 20 C 30 min, 6% native PAGE at 4 C in 0.5x TBE, EtBr; footprinting: 180 ng DNA, 25 C 30 min
T2 sequence: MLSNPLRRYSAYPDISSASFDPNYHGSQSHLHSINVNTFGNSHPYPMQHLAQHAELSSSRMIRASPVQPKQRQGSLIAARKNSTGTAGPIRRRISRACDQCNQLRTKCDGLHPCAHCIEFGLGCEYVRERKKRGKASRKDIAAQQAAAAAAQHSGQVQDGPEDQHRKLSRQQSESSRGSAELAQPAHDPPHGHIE

XTR1 DBD [3] = molecular target: T3, XTR1 DBD (Trichoderma reesei QM9414, UniProt G0RH11 285-535); experiment: EMSA; EMSA: 10 mM Tris pH 7.5, 50 mM KCl, 1 mM DTT, 150 ng DNA, 20 C 30 min, 6% native PAGE at 4 C in 0.5x TBE, EtBr; footprinting: 180 ng DNA, 25 C 30 min; details: protein: recombinant; tags: His tag (pET22b NdeI/XhoI, Ni-NTA); label: none (EtBr stain)
T3 sequence: T1 sequence

XTR1 DBD [4] = molecular target: T3, XTR1 DBD; experiment: EMSA; binding increased vs wild type; EMSA: 10 mM Tris pH 7.5, 50 mM KCl, 1 mM DTT, 150 ng DNA, 20 C 30 min, 6% native PAGE at 4 C in 0.5x TBE, EtBr; footprinting: 180 ng DNA, 25 C 30 min; details: protein: recombinant; tags: His tag (pET22b NdeI/XhoI, Ni-NTA); label: none (EtBr stain)

Molecule: AACTAGGACCGGCTTGTGTCGATATTGCGGGTGGCGTTCAATCTATTCCGGCACTCCTATGCCGTTTGATCCGATACCTGGAGGGCGTGCTTTAGGCAAAATGCCAAGCTTCGAGGATACTGTACGAGCCGCTTTCAACCTCACTTGATGATGTCTGAGTTTCATCAAGAGAATTGAAGTCAAAGCTCAAATCATGATGTGAAGAGGTTTTGAATGTGGAAGAATTCTGCATA (double strand) [Pxyn1 (-321 to -91)]
- binding [1]: binds

Molecule: AAGCTTCGAGGATACTGTACGAGCCGCTTTCAACCTCACTTGATGATGTCTGAGTTTCATCAAGAGAATTGAAGTCAAAGCTCAAATCATGATGTGAAGAGGTTTTGAATGTGGAAGAATTCTGCATA (double strand) [Pxyn1 (-217 to -91)]
- binding [1]: no binding

Molecule: AACTAGGACCGGCTTGTGTCGATATTGCGGGTGGCGTTCAATCTATTCCGGCACTCCTATGCCGTTTGATCCGATACCTGGAGGGCGTGCTTTAGGCAAAATGCC (double strand) [Pxyn1 (-321 to -217)]
- binding [1]: binds
- binding [2]: binds

B1: Pxyn1 (-321 to -217) GG2-3 to AA (dsDNA)
DNA 1: AACTAGGACCGGCTTGTGTCGATATTGCGGGTGGCGTTCAATCTATTCCGGCACTCCTATGCCGTTTGATCCGATACCTAAAGGGCGTGCTTTAGGCAAAATGCC
DNA 2: GGCATTTTGCCTAAAGCACGCCCTTTAGGTATCGGATCAAACGGCATAGGAGTGCCGGAATAGATTGAACGCCACCCGCAATATCGACACAAGCCGGTCCTAGTT
- binding result (XTR1 DBD [3]): binds

B2: Pxyn1 (-321 to -217) 3' TTT to AAA (dsDNA)
DNA 1: B1 DNA 1 with A80G, A81G, T91G, T92G, T93G
DNA 2: B1 DNA 2 with A13C, A14C, A15C, T25C, T26C
- binding result (XTR1 DBD [4]): binds

B3: Pxyn1 (-321 to -217) GGG5-7 to AAA (dsDNA)
DNA 1: B1 DNA 1 with A80G, A81G, G83A, G84A, G85A
DNA 2: B1 DNA 2 with C21T, C22T, C23T, T25C, T26C
- binding result (XTR1 DBD [3]): binds

B4: Pxyn1 (-321 to -217) CGTGC8-12 to TTGTT (dsDNA)
DNA 1: B1 DNA 1 with A80G, A81G, C86T, G87T, T88G, G89T, C90T
DNA 2: B1 DNA 2 with G16A, C17A, A18C, C19A, G20A, T25C, T26C
- binding result (XTR1 DBD [3]): no binding
